For the assay, the target named is PD-L1 ECD (Homo sapiens, UniProt Q9NZQ7). The assay is described as follows: magneto-nanosensor.
Chain of PD-L1 ECD (Q9NZQ7 19-238): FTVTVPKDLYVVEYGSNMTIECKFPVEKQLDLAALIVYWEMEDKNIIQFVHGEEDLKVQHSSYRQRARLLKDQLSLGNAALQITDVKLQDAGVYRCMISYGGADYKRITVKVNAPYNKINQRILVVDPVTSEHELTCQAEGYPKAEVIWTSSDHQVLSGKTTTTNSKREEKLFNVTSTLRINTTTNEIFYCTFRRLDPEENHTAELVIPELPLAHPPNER

B1: PD-L2 ECD (protein)
chain: LFTVTVPKELYIIEHGSNVTLECNFDTGSHVNLGAITASLQKVENDTSPHRERATLLEEQLPLGKASFHIPQVQVRDEGQYQCIIIYGVAWDYKYLTLKVKASYRKINTHILKVPETDEVELTCQATGYPLAEVSWPNVSVPANTSHSRTPEGLYQVTSVLRLKPPPGRNFSCVFWNTHVRELTLASIDLQSQMEPRTHPT
In turn, B1 gave a dissociation constant (Kd) of 9.1 µM.

In general, Kd refers to a measure of binding affinity in units of concentration. A higher Kd goes with a looser complex.

The record behind these values is article PMC4961847 (2016).
